IntAct's records for PubMed 21505417

B1: Intraflagellar transport protein 25 (Chlamydomonas reinhardtii), B8LIX8 (parent)
chain: MKDYAREENGGLVVMASCSDERFPPENMLDGKDNTFWVTTGMFPQEFVLRLESCIRVSKITTLSLNVRKLAVEKCDQDKPDQFEKVFEVELANRGDRLQTEVHQVNIRAKYLKFILLQGHGEFATVNRVSVVGGDDDGGGYDEPGGGYGSMQRQPSMGYGGGGGSAATGFAADPGNAAAGGGGGFEDEF
partner: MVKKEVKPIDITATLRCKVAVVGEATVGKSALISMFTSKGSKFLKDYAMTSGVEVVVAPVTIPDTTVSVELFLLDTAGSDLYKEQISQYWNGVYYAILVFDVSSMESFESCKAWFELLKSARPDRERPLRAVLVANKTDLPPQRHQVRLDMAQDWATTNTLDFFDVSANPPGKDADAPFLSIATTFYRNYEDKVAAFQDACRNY

Variants of: B1
Conditions: with ift27_chlre IFT27, A8HN58

For T40R, which “effect of a mutation on the interaction” value is on record?
The value was “disrupting interaction”.

With V38R as the variant, how does the “effect of a mutation on the interaction” value read?
Its value is “disrupting interaction”.

Which “effect of a mutation on the interaction” value does the source give for T125E here?
The value was “disrupting interaction”.
